Experimental findings from patent publication CN116406375A (UNIV SHANGHAI TECHNOLOGY, dated 2023) are described below.

The target of assay [1] is T1, HCoV-229E刺突 (HCoV-229E, UniProt P15423 16-1173).
T1 construct: whole, on cells
T1 sequence: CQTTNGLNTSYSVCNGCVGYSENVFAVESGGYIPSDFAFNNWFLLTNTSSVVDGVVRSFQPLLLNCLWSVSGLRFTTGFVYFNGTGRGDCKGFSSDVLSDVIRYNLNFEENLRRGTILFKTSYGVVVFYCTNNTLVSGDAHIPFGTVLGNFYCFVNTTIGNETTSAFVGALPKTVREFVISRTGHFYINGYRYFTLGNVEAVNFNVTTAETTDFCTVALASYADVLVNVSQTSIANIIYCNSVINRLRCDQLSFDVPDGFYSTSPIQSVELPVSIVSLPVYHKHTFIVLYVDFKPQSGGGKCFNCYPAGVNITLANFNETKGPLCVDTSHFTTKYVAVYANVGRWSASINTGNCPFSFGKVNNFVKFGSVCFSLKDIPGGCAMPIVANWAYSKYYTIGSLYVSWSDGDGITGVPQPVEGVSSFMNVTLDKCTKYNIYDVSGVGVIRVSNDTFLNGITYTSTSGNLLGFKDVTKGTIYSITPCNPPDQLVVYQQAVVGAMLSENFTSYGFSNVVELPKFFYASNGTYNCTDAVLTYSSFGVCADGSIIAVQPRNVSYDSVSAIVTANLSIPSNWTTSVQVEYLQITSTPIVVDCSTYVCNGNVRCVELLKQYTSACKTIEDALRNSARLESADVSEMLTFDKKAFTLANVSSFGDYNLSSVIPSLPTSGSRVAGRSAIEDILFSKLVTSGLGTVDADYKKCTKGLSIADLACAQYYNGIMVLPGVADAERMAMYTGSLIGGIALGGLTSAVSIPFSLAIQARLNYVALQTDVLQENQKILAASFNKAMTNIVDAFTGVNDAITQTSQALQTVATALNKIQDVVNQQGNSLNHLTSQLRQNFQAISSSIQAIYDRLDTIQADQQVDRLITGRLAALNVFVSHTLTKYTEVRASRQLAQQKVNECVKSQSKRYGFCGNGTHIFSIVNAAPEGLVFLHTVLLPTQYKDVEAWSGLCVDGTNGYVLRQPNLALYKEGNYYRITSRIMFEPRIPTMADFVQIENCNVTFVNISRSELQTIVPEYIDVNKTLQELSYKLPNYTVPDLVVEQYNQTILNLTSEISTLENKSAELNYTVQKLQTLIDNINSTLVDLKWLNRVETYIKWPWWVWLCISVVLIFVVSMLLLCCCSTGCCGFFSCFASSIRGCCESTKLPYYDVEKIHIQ
The assay can be described thus: FACS on transfected HEK293T cells.

Assay [2] deals with T2, HCoV-NL63刺突 (HCoV-NL63, UniProt Q6Q1S2 19-1356).
T2 construct: whole, on cells
T2 sequence: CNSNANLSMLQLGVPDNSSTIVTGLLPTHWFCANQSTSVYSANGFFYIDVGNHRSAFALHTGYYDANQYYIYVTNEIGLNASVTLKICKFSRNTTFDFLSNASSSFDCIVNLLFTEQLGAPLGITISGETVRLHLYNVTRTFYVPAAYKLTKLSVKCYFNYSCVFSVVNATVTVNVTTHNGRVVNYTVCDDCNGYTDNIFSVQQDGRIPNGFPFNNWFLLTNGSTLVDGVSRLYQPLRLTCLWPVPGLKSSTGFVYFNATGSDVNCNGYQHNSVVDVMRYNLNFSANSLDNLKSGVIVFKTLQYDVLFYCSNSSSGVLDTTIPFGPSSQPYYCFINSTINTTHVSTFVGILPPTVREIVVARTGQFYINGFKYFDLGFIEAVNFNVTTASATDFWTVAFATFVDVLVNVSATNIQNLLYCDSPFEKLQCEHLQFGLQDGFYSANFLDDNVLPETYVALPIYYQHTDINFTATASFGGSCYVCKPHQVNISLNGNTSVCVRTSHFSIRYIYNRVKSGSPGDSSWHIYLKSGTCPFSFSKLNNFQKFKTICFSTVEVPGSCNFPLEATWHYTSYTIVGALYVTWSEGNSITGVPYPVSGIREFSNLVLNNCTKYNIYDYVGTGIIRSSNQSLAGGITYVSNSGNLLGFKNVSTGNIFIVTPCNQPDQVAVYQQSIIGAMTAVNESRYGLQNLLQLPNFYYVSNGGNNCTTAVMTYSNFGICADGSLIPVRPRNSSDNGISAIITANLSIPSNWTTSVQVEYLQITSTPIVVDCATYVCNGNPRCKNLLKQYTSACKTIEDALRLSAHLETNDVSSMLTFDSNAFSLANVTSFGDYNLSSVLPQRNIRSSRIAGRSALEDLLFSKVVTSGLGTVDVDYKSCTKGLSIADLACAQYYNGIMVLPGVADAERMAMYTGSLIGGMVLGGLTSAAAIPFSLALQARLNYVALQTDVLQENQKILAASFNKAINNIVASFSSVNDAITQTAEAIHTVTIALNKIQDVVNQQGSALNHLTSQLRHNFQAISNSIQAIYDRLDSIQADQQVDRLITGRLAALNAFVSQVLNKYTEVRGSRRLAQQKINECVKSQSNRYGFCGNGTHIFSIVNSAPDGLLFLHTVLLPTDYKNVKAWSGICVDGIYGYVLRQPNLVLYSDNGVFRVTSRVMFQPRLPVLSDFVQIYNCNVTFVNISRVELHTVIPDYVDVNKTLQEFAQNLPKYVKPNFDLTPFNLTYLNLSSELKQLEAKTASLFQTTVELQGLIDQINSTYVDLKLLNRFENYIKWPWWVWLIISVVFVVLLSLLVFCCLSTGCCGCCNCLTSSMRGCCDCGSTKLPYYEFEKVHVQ
The assay can be described thus: FACS on transfected HEK293T cells.

Assay [3] addresses T3, HCoV-OC43刺突 (HCoV-OC43, UniProt P36334 14-1353).
T3 construct: whole, on cells
T3 sequence: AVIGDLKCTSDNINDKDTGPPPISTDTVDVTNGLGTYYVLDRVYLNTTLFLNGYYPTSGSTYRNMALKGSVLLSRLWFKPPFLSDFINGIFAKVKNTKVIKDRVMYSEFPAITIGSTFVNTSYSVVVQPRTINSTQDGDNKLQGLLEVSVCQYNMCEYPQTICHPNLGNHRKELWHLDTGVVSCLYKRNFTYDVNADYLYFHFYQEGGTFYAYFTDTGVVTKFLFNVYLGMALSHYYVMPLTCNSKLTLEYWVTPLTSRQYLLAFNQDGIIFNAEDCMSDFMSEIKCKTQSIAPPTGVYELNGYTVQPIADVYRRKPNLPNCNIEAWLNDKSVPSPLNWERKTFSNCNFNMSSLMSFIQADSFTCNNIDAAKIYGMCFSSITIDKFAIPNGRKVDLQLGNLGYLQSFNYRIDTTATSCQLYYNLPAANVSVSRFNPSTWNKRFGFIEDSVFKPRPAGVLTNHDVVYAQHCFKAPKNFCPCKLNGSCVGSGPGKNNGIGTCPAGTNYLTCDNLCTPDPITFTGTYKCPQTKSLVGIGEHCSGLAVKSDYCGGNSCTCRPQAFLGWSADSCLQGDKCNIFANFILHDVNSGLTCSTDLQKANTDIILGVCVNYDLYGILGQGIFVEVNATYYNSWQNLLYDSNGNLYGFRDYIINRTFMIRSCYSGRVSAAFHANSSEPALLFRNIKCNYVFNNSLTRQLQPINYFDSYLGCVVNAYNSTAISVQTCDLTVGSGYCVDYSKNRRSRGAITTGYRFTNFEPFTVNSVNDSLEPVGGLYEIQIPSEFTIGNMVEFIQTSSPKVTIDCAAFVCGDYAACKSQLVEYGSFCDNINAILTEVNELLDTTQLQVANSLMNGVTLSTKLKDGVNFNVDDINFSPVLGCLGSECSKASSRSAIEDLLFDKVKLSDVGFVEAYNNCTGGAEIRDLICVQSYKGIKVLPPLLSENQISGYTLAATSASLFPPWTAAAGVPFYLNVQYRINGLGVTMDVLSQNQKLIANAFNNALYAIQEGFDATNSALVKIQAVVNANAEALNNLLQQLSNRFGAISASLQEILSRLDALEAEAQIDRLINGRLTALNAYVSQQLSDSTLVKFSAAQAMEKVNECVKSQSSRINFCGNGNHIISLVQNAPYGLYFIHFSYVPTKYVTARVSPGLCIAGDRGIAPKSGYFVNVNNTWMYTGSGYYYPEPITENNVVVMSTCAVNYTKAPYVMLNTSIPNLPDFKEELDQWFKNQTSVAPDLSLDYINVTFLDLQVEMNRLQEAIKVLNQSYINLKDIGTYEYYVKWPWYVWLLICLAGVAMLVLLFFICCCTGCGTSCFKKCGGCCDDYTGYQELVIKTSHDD
The assay can be described thus: FACS on transfected HEK293T cells.

Assay [4] deals with T4, HCoV-HKU1刺突 (HCoV-HKU1, UniProt Q5MQD0 13-1356).
T4 construct: whole, on cells
T4 sequence: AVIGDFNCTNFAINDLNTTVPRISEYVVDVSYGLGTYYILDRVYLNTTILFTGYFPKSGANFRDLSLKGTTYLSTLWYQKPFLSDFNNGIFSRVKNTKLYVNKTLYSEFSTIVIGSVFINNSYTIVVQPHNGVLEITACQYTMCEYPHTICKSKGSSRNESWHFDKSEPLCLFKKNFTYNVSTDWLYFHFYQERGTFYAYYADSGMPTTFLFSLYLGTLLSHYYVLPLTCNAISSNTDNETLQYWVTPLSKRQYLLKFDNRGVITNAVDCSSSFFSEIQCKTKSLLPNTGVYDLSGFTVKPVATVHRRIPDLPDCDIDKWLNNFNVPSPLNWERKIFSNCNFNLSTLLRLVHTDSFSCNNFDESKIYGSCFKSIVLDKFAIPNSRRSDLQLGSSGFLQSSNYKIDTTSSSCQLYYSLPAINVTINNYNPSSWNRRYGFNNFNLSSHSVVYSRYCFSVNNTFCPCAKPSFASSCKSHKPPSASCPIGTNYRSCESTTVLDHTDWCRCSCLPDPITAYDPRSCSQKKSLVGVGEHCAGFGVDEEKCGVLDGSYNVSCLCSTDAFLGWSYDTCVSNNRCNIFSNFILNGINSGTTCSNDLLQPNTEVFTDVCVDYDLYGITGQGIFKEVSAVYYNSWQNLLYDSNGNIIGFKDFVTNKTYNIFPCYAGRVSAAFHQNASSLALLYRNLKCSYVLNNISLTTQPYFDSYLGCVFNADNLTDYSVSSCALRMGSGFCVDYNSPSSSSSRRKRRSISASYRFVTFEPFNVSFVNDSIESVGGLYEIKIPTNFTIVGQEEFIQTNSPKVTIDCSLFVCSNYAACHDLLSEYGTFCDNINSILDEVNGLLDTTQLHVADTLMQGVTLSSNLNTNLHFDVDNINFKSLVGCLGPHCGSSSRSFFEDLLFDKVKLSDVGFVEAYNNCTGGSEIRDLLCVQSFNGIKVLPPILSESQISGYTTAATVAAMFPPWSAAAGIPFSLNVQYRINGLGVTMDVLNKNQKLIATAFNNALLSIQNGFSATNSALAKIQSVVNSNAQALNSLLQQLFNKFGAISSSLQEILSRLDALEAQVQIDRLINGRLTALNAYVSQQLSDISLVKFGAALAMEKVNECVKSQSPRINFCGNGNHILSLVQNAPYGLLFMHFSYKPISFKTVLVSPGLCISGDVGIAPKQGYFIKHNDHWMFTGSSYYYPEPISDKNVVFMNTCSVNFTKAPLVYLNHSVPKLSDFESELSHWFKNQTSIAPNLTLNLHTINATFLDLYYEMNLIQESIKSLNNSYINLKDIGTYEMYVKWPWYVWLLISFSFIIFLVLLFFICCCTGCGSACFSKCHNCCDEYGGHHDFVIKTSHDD
In words: FACS on transfected HEK293T cells.

Assay [5] deals with 真SARS-CoV-2病毒 Victoria/01/2020 的刺突 (SARS-CoV-2). In words: cell-based or functional assay.

B1: S-B8 (antibody, V domains shown)
VH: QVQLVQSGGGLIQPGGSLRLSCAASGFTVSLSHMNWVRQAPGKGLEWVSITYGDGNSDYADSVKGRFTISRDNSKNTLYLQMNSLRAEDTAVYYCAREYYYGMDVWGQGTTVTVSS
VL: not shown
notes: also called S-B8二聚体
Take B1: the binding result in assay [1], in assay [2], in assay [3] and in assay [4] was “no binding” throughout. Moreover, in assay [5], the “NT50, 真病毒中和 (Victoria/01/2020)” value came out at 0.88 nM.

B2: S-E6 (antibody, V domains shown)
VH: QVTLRESGPGLVKPSETLSLTCAVSGGSLSSVNYYWSWIRQHPGKGLEWIGYIYYSGSTNYNPSLKSRVTMSLDTSKNQFSLKLSSVTAADTAVYYCATPGAIMGALHIWGQGTLVTVSS
VL: QAVLTQPSSASSTPGQRVIISCSGSSSNIGSNTVSWYQQVPGAAPKLLIYFDYRRPSGVPDRFSGTRSGTSASLGISGLQSEDEADYYCAAWDDSLSAWVFGRGTKLTVLG
notes: also called S-E6二聚体; 二聚体S-E6
Consider B2, for which the binding result in assay [1], in assay [2], in assay [3] and in assay [4] was “no binding” in each case. Further, in assay [5], the “NT50, 真病毒中和 (Victoria/01/2020)” value is 0.15 nM.

B3: S-D4 (antibody, V domains shown)
VH: QVQLQESGGGVVQPGRSLRLSCEVSGFTFSDYGMHWVRQAPGKGLEWVAVIWSEGSTEYYADSVKGRFTISRDNSKDTLYLQMNSLRAEDTAVYYCARPGYPTSTDRSPAAAGARQYYYYGMDVWGQGTTVTVSS
VL: NFMLTQPHSVSESPGKTVTISCTRSGGSGAANYVQWYQQRPGSSPTTLIYEDSRRPPGVPDRFSGSVDTSSNSASLTISGLQTEDEADYYCQSYDSSNHVVFGGGTKLTVLG
notes: also called S-D4二聚体; S-D4 IgG4
As to B3, the binding result in assay [1], in assay [2], in assay [3] and in assay [4] was “no binding” in each case. Besides, the “NT50, 真病毒中和 (Victoria/01/2020)” value in assay [5] amounted to 2.04 nM.
